Measured values published in the DeepSol protein solubility set.

Assay: soluble on expression in E. coli; label from the status in PepcDB or PDB records
For “MSLGDLEQKIIAMDLWHLALPVVSARDHGIGRVEGSCEIVVLRLVAEGGAEGFGEASPWAVFTGTPEASYAALDRYLRPLVIGRRVGDRVAIMDEAARAVAHCTEAKAALDSALLDLAGRISNLPVWALLGGKCRDTIPLSCSIANPDFDADIALMERLRADGVGLIKLKTGFRDHAFDIMRLELIARDFPEFRVRVDYNQGLEIDEAVPRVLDVAQFQPDFIEQPVRAHHFELMARLRGLTDVPLLADESVYGPEDMVRAAHEGICDGVSIKIMKSGGLTRAQTVARIAAAHGLMAYGGDMFEAGLAHLAGTHMIAATPEITLGCEFYQASYFLNEDILETPFRVEAGQVIVPDGPGLGARADPEKLEHYAVRRSGEGHHHHHH”, the “soluble on expression in E. coli” value was “soluble”.
With “MADPPPNPSSVPPNGNLTGTPSAGNAAAVAPMAHEKDRQSKEGDEIVTKSGKKYKLGPVLGEGGYGTVFLSQDDDIKIAVIAVSCFPYIIVQNEVWFKEQKKHHVIHVVHNFSSKLLVNTTKYSRSSTVMRFNLHLITRKSTNYLWRLEKNANFVIVKTGIGKMKQSRPLSPQSLHSLIKNFAPRLTNSQKRRVLVLIFLISWSPISLPFLCTSISHHELIGINVLIKKIYVLQYFLNI” the “soluble on expression in E. coli” value was “not soluble”.
With “MVFGPGLCIAHRGTIVVNKGARVGENCRIHACTNIGSGRDNIFLAPKIGNGVYIGPGAKIFGSVEIADNIAIGANSVVNRSFYERGISIAGVPAKKISNKGSDGMVIAATKTVSVPVSQETILEHHHHHH” the “soluble on expression in E. coli” value was “not soluble”.
For “MSLEMNRYLSFTLFTGLSLLTTIPIEAYTLNPNKTATSILQTNVIEVRSITSVQPIVIYCPVGTVPQLPYQVWVTYSDGQGEYRQTKWSNSALSTEQSEADDKVYPIGSQYTINGFIIGDDTTENGYPITAKIEVVDTKNTISPKLIAHTIPLNNVKINGNNRLTSNRDLAIKEIISWDVSQQLYNYRDTYGLSTEGYTRSDGWDSPETKLKGHGSGHYMSALALAYAAATNPSHKEILRRNITRMVNELRECQERTFVWSEELGRYLEARDFAPEEELKKMKGTWEAFDEHKTKWATYGYGYLNAIPPHHPALIEMYRAYNNSDWVWAPYYSIHKQLAGLIDIATYMDDKSIADKALLIAKDMGLWVWNRMHYRTYVKKDGTQEERRTHPGNRYEMWNMYIAGEVGGMGESLARLSEMVSAPEEKARLIEASNCFDSPAFYEPLSKNIDDIRNRHANQHIPMIIGALRSYLSNNDTFYYHVSHNFWNLIQGRYRYSTGGVGNGEMFRQPYTQIVSMAMNGVSEGESHSNPHINETCCAYNLLKLTKDLNCLNPDDARYMDYYERTLYNQIIGSLHPEHHQTTYQYAVGLNASKPWGNETPQSTCCGGTGSENHVKYQEATYFVSDNTLWVALYMPTTLHWEEKNITLQQECLWPAKSSTIKVTAGEARFAMKLRVPYWATDGFDVKLNGISIATHYQPCSYAVIPTRQWKENDIVEITMPFTKHIDYGPDKLPAEIASKDGHQLETAWVGTLMHGPFAMTATDITNWTEATLNIDSRLASITVVEPNGPQTGTTGNLYTLMQGGRTFQPDYYRHDHTTHYFRINHIKDPTEGHHHHHH”, the “soluble on expression in E. coli” value was “soluble”.
With “MTESIDGNPWRILELVAENEYHLEQDNNVDQLEQFSVIPGFQEELVEFAKKKLLDSIEVQQFLVERDIEFQEKNIASLIDELSDNQDDESNSKEIHLELKSSKNKYEGLRKKIASFKGRQQKAVGFLNSGLEEIRILTSPNDKFCYKVKNASWRCSVDNSIDLQKIKLICEKLIGLEKKMEVTFWTSEIMKLLENLDQRHYAVAFGIIIGMATWEYENSEKYHLLALIHLSIGRDETKTDVLLYWENWENESIEQSIVSLRILMIFYMKISIDDLECRENFEFRICQVIVFILEHKEFESSHLTMITELLGSIEQRFGNFTEMCDIMFTHFEAKAQMFDSYEAKMLVFMRNEHLSLLQTQHIDQCMDTLNILILLYLKIKIDKWTYREIIEQRISQFIICILEHTEFQSIHLTLIIQHLESIEQQFGCFSGKFDNMFKIFELKLQILDRPEQERVSKWIKSLSLRSSISEFSSEHSHSTVTVIEHSEKTYELEQNVRIDLEETLKLEKRIEEVSIEESKKKQEKLELKQREEEEARIKEEEEKQRKILEEEARKKQEEEEARLKAEEELKIYEEEKRKKELEEERKKKEELEIKRKAEEEKKKKALEEEKKRKIAEEKARQKQEKERKKQANKCTFLQNFTFIRHQHPSQTYNERVLDGKVVGLYFSAHWCPPSRDFTPVLAQFYSQVEDNFEILFVSSDNNTQEMNFYLQNFHGDWFHLPLNLCNSMKHRNTKNHIPALIIMKPDGTVITDDGRNLVSQWINDPKALVNHWKAMLN” the “soluble on expression in E. coli” value was “not soluble”.
With “IQFTESCSMDQSAKEPLINYLDMEYFGTISIGSPPQNFTVIFDTGSSNLWVPSVYCTSPACKTHSRFQPSQSSTYSQPGQSFSIQYGTGSLSGIIGADQVSVEGLTVVGQQFGESVTEPGQTFVDAEFDGILGLGYPSLAVGGVTPVFDNMMAQNLVDLPMFSVYMSSNPEGGAGSELIFGGYDHSHFSGSLNWVPVTKQAYWQIALDNIQVGGTVMFCSEGCQAIVDTGTSLITGPSDKIKQLQNAIGAAPVDGEYAVECANLNVMPDVTFTINGVPYTLSPTAYTLLDFVDGMQFCSSGFQGLDIHPPAGPLWILGDVFIRQFYSVFDRGNNRVGLAPAVPWSHPQFEK” the “soluble on expression in E. coli” value was “soluble”.
With “MGSDKIHHHHHHMSDAMHTLLTASPLLDLHHPEIEALVARRDWLTLSPYDRIGAVYDFVRNEIAFGYNEGDELPASRVLADGIGQCNTKSTLLMALLRAVGIPCRFHGFTIDKPLQKGAITGLAYWLAPQRIIHSWVEVSLEGRWIALEGFILDAPYLASLQRRFPQARRFCGYGAATPDLSAPGVDWRGQDAYIQKEGIADDFGVFDSPDAFYARHGSNLSGVKRWLYERVIRHRMNRNVARVRASKW” the “soluble on expression in E. coli” value was “not soluble”.
In the case of “MKNDRTLQAIGRQLKAMGCERFDIGVRDATTGQMMNREWSAAEVLQNTPWLKRMNAQGNDVYIRPAEQERHGLVLVDDLSEFDLDDMKAEGREPALVVETSPKNYQAWVKVADAAGGELRGQIARTLASEYDADPASADSRHYGRLAGFTNRKDKHTTRAGYQPWVLLRESKGKTATAGPALVQQAGQQIEQAQRQQEKARRLASLELPERQLSRHRRTALDEYRSEMAGLVKRFGDDLSKCDFIAAQKLASRGRSAEEIGKAMAEASPALAERKPGHEADYIERTVSKVMGLPSVQLARAELARAPAPRQRGMDRGGPDFSM”, the “soluble on expression in E. coli” value is reported as “soluble”.
In the case of “MGSDKIHHHHHHMQNIIIEARVNELATRIGNPHVPFLPAEVIADAKACHDAGASIFHFHGRNEDGTPSHDPNFYLETNAGIRAQSDILIHPTLGYVANDTDAKGRFAAIEQMMQSAETAPDFAPMDTGSVNVDWWNPDEGKYDTTELIYKNSTGTLMYFADRIRHYNLTPYLVSWNVSFTRQIEQFLKMGVLDAPAYICFCMTDEIIFAGHPGTEAGLDAHTAFLPPEFETVWTVVNYKGDLFQLTEKIIRTGGHISIGLGDYAYMDGSRHMTNAEVIAKVADQARRLGREPASVAETREILNMKTPRIAA”, the “soluble on expression in E. coli” value is reported as “not soluble”.
For “MSMEFDAVIIGGGVSGCATFYTLSEYSSLKRVAIVEKCSKLAQISSSAKANSQTIHDGSIETNYTPEKAKKVRLSAYKTRQYALNKGLQNEVIFETQKMAIGVGDEECEFMKKRYESFKEIFVGLEEFDKQKIKELEPNVILGANGIDRHENIIGHGYRKDWSTMNFAKLSENFVEEALKLKPNNQVFLNFKVKKIEKRNDTYAVISEDAEEVYAKFVLVNAGSYALPLAQSMGYGLDLGCLPVAGSFYFVPDLLRGKVYTVQNPKLPFAAVHGDPDAVIKGKTRIGPTALTMPKLERNKCWLKGISLELLKMDLNKDVFKIAFDLMSDKEIRNYVFKNMVFELPIIGKRKFLKDAQKIIPSLSLEDLEYAHGFGEVRPQVLDRTKRKLELGEKKICTHKGITFNMTPSPGATSCLQNALVDSQEIAAYLGESFELERFYKDLSPEELENLEHHHHHH”, the “soluble on expression in E. coli” value was “soluble”.
For “MNTQFSCVGCGKCCNDHHVPLTLLEARDWAADGGQVIILVEAFLGNGLGLPMQQREHAERRSCRVRSGATEAYVAITFAAYNVGPCRNLDEDQLCRIYQRRPLVCRIYPMEINPHIPLNPQAKECPPESWEQGPQLILGNELVDQELAELIRRSRQADRDDIHTKEAICALLGIRTTALKGDGFTAYLPDMGALANAIDQVQAAPPGAPGQPWRFHLSGDDIAGQVQAAGAQVVSETPLDYAFISLRAALEHHHHHH”, the “soluble on expression in E. coli” value was “soluble”.
With “MGSDKIHHHHHHMTYSKQSEWREIQSYLPKKYHFTDNYHPTEEWWNWKGHEVHLDCFRNEKAPVKVILLHGVGTNGRQMSMILGGPLSKDGFETIAIDMPTYGVTKVKKGSVVKYDDWVDLACDYIDYEQQRDDRPIVLYGLSAGGMETYHVAAKNKKVKGIIGMTFLDQKNQQVRDETAKNLVMSRVGIPMAGIACNIGLENFKMKMSTASKMSALCNNEKVMEIFNRDKTSAANKASMRFLDSYGNYQPAMEPEDFDVCPILLTQPEQDKWTPLHLSTPFLNKIKKVDVKIVMLENGGHYPVEQPALDQMHDAIVEFIYKVTK” the “soluble on expression in E. coli” value was “not soluble”.
For “MSRFPRRFIDDSSMEDAGISLCPSIHYRPINPNDLDRLEQIHRDIFPIKYESEFFQSVVNGVDIVSWAAVDRSRPDDHSDELIGFVTAKFVLAKDSEIDDLIHYDSSKGEETLIYILTLGVVETYRNRGIAMSLISEVIKYASGLSVCRGVYLHVIAHNNAAICLYKRLMFRCVRRLHGFYLINRHHFDAFLFVYFINGSRTPCSPLEVAMFVVNYMKSGIKSVASKLANKDEKGLKWLFCKDTDCV”, the “soluble on expression in E. coli” value was “soluble”.
For “MSLNNIAPQSPVMRRLTLQDNPAIASVIRQVYAEYGLTADKGYTVADPNLDELYQVYSQPGHAYWVVEYNGEVVGGGGIAPLTGSEADICELQKMYFLPAIRGKGLAKKLALMAMEQAREMGFKRCYLETTAFLKEAIALYEHLGFEHIDYALGCTGHVDCEVRMLRELEGHHHHHH”, the “soluble on expression in E. coli” value was “not soluble”.
For “MGSDKIHHHHHHMYANKVKKIAAVHDLSGMGRVSLTVVIPILSSMGFQVCPLPTAVLSNHTQYPGFSFLDLTDEMPKIIAEWKKLEVQFDAIYTGYLGSPRQIQIVSDFIKDFRQPDSLIVADPVLGDNGRLYTNFDMEMVKEMRHLITKADVITPNLTELFYLLDEPYKADSTDEELKEYLRLLSDKGPQVVIITSVPVHDEPHKTSVYAYNRQGNRYWKVTCPYLPAHYPGTGDTFTSVITGSLMQGDSLPMALDRATQFILQGIRATFGYEYDNREGILLEKVLHNLDMPIQMASYELI”, the “soluble on expression in E. coli” value was “not soluble”.
For “MTVRRTAAARRGRDRKAEIVFPAPGADRFGRGDEPSVAVIGGGIAGLAAATLMAERGARVTLYEKEDAVGGRLSGRRTTLADGSAVTMTRGFHAFFRQYYNLRGLLRRTDPGLDRLTPLPDYPLRHSGGLTDGFARVPRTPPLSAIGFVALSPTFGWRDLAAMDPRAALPLLDVRVPQVYERFDGVTATAFLESVRFPEAAHHLAFEVFSRSFFADPRRLSAAELLLMFHIYFLGSSEGLLFDVPVEPFPQALWNPLGDYLRRLGADVRTGTPVHGILPRADGGADVLTDTGADRHQAVVLALDTAGLRQTVAASPGLGTDTWRDGIAALRTAPPFLVSRLWLDRPVDADRPGFLGTSGYGGLDNVSVLERYEGEAARWAARTGGSVVELHAYAVDPAAEPKEVQDELVDRLHQAYPETREARVVDARHEWRADCPMFEVGSHRRRPTVRTPHPWLTLAGDGIRCDLPVALMERAATTGFLAANALLADRGVRGQVLWTVPRTGRSPVLRAFGAVAGHRSAPLEHHHHHH”, the “soluble on expression in E. coli” value was “not soluble”.
For “MSLDEKKLKALAVELAKGLKTEADLNSFSRMLAKLTVETVLNAELADHPGYEKNAPKTGSNTRNGYSSKTVLCDDGEIELNTPRDRENTFEPQLLKKHQTRITQMDSQILSLYAKGMTTREIVATFKEMYDANVSPSLISKVTDAVKEQVTERQNRQPDALYPIVYMDCIVVKVRQNGSVINKAVFLALGINTEGQKELLGMWLAENEGEKFWLSVLTELKTRGVQDILIACVDGLKGFPDAINSVFPQPHIQLCIIHMVRNSLKYVAWKGYKVATSGLRLRPKRRHEGHHHHHH”, the “soluble on expression in E. coli” value was “not soluble”.
